Experimental data: patent publication US11072592B2, “Small molecules that enable cartilage rejuvenation” (The Regents of the University of California, priority 2015, dated 2021)

What was measured:
pSTAT3 and MYC [1] = experiment: Western blot of pSTAT3 and MYC in adult pig articular chondrocytes; type: cell-based; settings: adult pig articular chondrocytes; for ability of both LIF and RCGD 423 to induce increases in pSTAT3 and MYC: inhibitor plus LIF or RCGD 423; for levels of MYC / levels of pSTAT3: treated vs untreated, relative to histone H3
Description: Only early passages of chondrocytes (passage 0-2) were used for experimentation to avoid de-differentiation and loss of cartilage phenotype (Wu et al., 2014). Cartilage explants were made using 1, 2 or 8 mm biopsy punch and wet weight of each explant determined prior to experimentation. For cell isolation cartilage tissue was digested as described previously (Wu et al., 2015). Postnatal paraffin embedded joint and growth plate specimens were kindly donated by Dr Marcel Karperien from the University of Twente (Netherlands) and Dr Nick Bernthal from University of California Los Angeles. All donated material was anonymous and carried no personal identifiers. Cell culture reagents were purchased from Life Technologies, Inc. (Grand Island, N.Y.). Growth factors LIF, OSM, IL-6, TNF-α, IL-1β were purchased from Life Technologies, Inc (Grand Island, N.Y.). STATTIC, 10058-F4, SCl44 hydrochloride, and CP-690550 were purchased from Sigma Aldrich (St. Louis, Mo.). RCGD 423 (N-(4-Bromophenyl)-4-phenyl-1,3-thiazol-2-amine) was synthesized and provided by MolPort (Riga, Latvia). Fetal, adult and pig chondrocytes were cultured in DMEM F12 medium containing 10% (vol/vol) fetal bovine serum and 1% Penicillin-Streptomycin (vol/vol) at 37° C. in a humidified atmosphere of 95% aid and 5% CO2. Media was replenished with DMEM F12 medium containing 1% (vol/vol) fetal bovine serum and 1% Penicillin-Streptomycin (vol/vol) once treatments were added. For 3-dimensional (3D) cell cultures adult human articular chondrocytes were incubated with or without RCGD 423 using 10% solution of Mebiol® hydrogel from Cosmo Bio (Carlsbad, Calif.) in X-vivo 15 serum free medium from Lonza (Walkersville, Md.) as described previously (Wu et al., 2014).
(§1) Treated and non-treated ells were lysed in RIPA Lysis and Extraction Buffer (Pierce, Rockford, Ill.) containing protease inhibitors (Pierce) followed by sonication with a 15-second pulse at a power output of 2 using the VirSonic 100 (SP Industries Company, Warminster, Pa.). Protein concentrations were determined by BCA protein assay (Pierce). Proteins were resolved with SDS-PAGE utilizing 4-15% Mini-PROTEAN TGX Precast Gels and transferred to Trans-Blot Turbo Transfer Packs with a 0.2-μm pore-size nitrocellulose membrane. The SDS-PAGE running buffer, 4-15% Mini-PROTEAN TGX Precast Gels, Trans-Blot Turbo Transfer Packs with a 0.2-μm pore-size nitrocellulose membrane were purchased from Biorad (Hercules, Calif.). Nitrocellulose membranes were blocked in 5% nonfat milk in 0.05% (v/v) Tween 20 (PBST) (Corning, Manassas, Va.). Membranes were then incubated with primary antibodies phospho-STAT3 (#9131), MYC (#5605), NF-κB p65 (#D14E12), pAKT (#9272) Histone 3 (#9715) from Cell Signaling, (Danvers, Mass.); MEK1/2 (ab70613) and p38 (ab795) from Abcam (Cambridge, Mass.) overnight. After washing in PBS containing 0.05% (v/v) Tween 20 (PBST), membranes were incubated with Goat anti-Rabbit IgG (H+L) Secondary Antibody (Thermo Scientific Rockford, Ill.). After washing, membranes were developed with the Clarity Western ECL Blotting Substrate (Hercules, Calif.).

cartilage explants = experiment: Cartilage explant culture: tissue expansion, COL2 and GAG content; type: cell-based, pig; settings: cartilage explants/plugs in culture
Description: The same stimulatory effect was achieved after treatment of explants with CRMs identified in our small molecule screen. […] This can test if activation of p-STAT3 and c-MYC by selected small molecules CRM-398 and -423 can result in in situ expansion of articular cartilage tissue.
Mature articular cartilage is comprised of chondrocytes contained within lacunae surrounded by dense extracellular matrix. In order for a regenerative response to occur, proliferation, survival and migration must all proceed in concert. […] We designed two sets of experiments to assess the ability of RCGD 423 to operate in this capacity. First, RCGD 423 or cytokines implicated in the growth and differentiation of articular cartilage were incubated with small plugs of cartilage tissue; after 5 weeks, the amount of COL2 and glycosaminoglycans (GAGs) were determined.
Cartilage explants were washed with PBS and then directly digested or stored at […]. For digestion, explants were transferred in digestion buffer composed of 1 mg/mL proteinase K in Tris/Ethylene diamine tetra-acetic acid (EDTA) buffer (pH 7.6) containing 18.5 μg/mL iodoacetamide and 1 μg/mL pepstatin A) for 16-72 h at 56° C. After complete digestion the GAG content was spectrophotometrically determined with 1,9-dimethylmethylene blue chloride staining in the phosphate buffer with ethylene diamine tetra-acetic acid buffer (14.2 g/L Na2HPO4 and 3.72 g/L Na2EDTA, pH 6.5) using an Infinite M1000 Pro microplate reader (Tecan) at an absorbance of 520 nm with chondroitin sulfate as a standard. Amount of total DNA in explants was determined by a CyQuant DNA Kit (Molecular Probes by Life Technology) using Qubit 1.0 fluorometer (Invitrogen).
Cultured explants were first digested in testicular hyaluronidase (0.05% in 50 mM HEPES) for 2 hours at 37° C. 0.5M glacial acetic acid was added to digestion solution to maximize the collagen swelling and provide best pepsin access. Pepsin (250 μg/ml) was then used to further digest the pellets in combination with rotation and occasional gentle vortexing at 4° C. for 18-24 hours. Cold tris base and NaOH were added to the digestion solution to neutralize the acetic acid. Digestion solution was vigorously vortexed immediately, and subsequently rotated at 4° C. overnight to maximize collagen solubility. Tubes were centrifuged to separate undigested tissue and supernatant. Any undigested tissue was subjected to the digestion process again. All supernatants were combined for ELISA. Concentration of collagen II in the supernatant was measured by Type I/II Collagen Detection Kit (Chondrex, Inc, Redmond, Wash.), according to manufacturer's instruction and normalized either to DNA content or wet weight of the explants determined prior to experimentation.

pSTAT3 and MYC [2] = experiment: Western blot of pSTAT3 and MYC in human fetal articular chondrocytes; type: cell-based; settings: 72 hours
Description: Moreover, LIFR expression is localized to chondrocytes in the superficial zone of articular cartilage throughout ontogeny. In contrast, LIF expression is strongest during fetal development and then diminishes over time (Table S1). […] LIF signals through a heterodimeric receptor comprised of LIFR and gp130 (IL6RST); upon binding extracellular ligand, both receptors are phosphorylated and recruit members of the JAK family which in turn phosphorylate STAT3 (pSTAT3). pSTAT3 then enters the nucleus to act as a transcriptional regulator. […] We first performed ELISA on human fetal and adult synovial fluid to determine if LIF protein levels change over time. […] Western blot analysis of the downstream effectors of LIF signaling, pSTAT3 and MYC, further supported reduced levels of LIF signaling in adult articular cartilage (FIG. 26A). We then confirmed that adolescent and adult articular chondrocytes in the superficial zone express both receptors required for LIF signaling (FIG. 33) and that these cells are the most anabolic of adult chondrocytes (FIGS. 34A-34B). Because STAT3 and MYC can respond to a variety of stimuli, we next wanted to determine if the increased levels of pSTAT3 and MYC in fetal cells were a direct result of increased LIF/LIFR signaling.
as §1

[3] = system: MAPK, AKT, NF-κB pathways; experiment: Western blot of MAPK, AKT and NF-κB signaling in adult pig articular chondrocytes; type: cell-based; settings: 24 hours
Description: FIGS. 30A-30B. […] (FIG. 30A) Adult pig articular chondrocytes were cultured for 24 hours with the indicated cytokines or RCGD 423 and the levels of pSTAT3 and MYC were measured with respect to histone H3. Representative data for other proteins in the MAPK (p38 and MEK1/2), AKT (phospho-AKT; pAKT) or NF-KB (NF-KB p65) are also shown. (FIG. 30B) Levels of transcription of genes indicative of a catabolic response were determined via quantitative PCR in adult pig articular chondrocytes treated with OSM, IL-6, TNF-α, LIF or RCGD 423. Data are represented at mean±SD.
Cartilage degeneration is generally considered a feed-forward process, in which small losses of chondrocytes result in microenvironmental changes including induction of an inflammatory response and other pro-catabolic events (Hunziker, 2002). In turn, these alterations in the joint milieu promote production of matrix degrading proteins including MMPs (collagenases) and proteins of the ADAMTS family (aggrecanases). LIF has been implicated in promoting this cycle of matrix destruction during the pathogenesis of osteoarthritis (Hui et al., 2000; Lotz et al., 1992), although its role in this process has been controversial. In order to better understand the mechanism of action of LIF, RCGD 423 and known pro-inflammatory cytokines in the promotion of degeneration, we stimulated adult pig articular chondrocytes with these molecules and quantitated the levels of activated downstream proteins that mediate the cellular signaling response (FIG. 30A).
as §1

## C[C@@H]1CCN(C(=O)CC#N)C[C@@H]1N(C)c1ncnc2[nH]ccc12 [JAK inhibitor, reference compound]
pSTAT3 and MYC [1]
  ability of both LIF and RCGD 423 to induce increases in pSTAT3 and MYC: greatly reduced

## Cl.O=C(NNc1nc2cc(F)ccc2n2cccc12)c1cnccn1 [gp130 inhibitor, reference compound]
pSTAT3 and MYC [1]
  ability of both LIF and RCGD 423 to induce increases in pSTAT3 and MYC: greatly reduced

## TGF-beta 1: morphogen
Cartilage explants
  expansion of cartilage tissue in explants: little or no effect

B1: BMP4: driver of chondrocyte hypertrophy (protein, UniProt P12644 293-408, looked up)
Bone morphogenetic protein 4: SPKHHSQRARKKNKNCRRHSLYVDFSDVGWNDWIVAPPGYQAFYCHGDCPFPLADHLNSTNHAIVQTLVNSVNSSIPKACCVPTELSAISMLYLDEYDKVVLKNYQEMVVEGCGCR
Cartilage explants
  expansion of cartilage tissue in explants: little or no effect

B2: GDF5: BMPR1B ligand (protein, UniProt P43026 382-501, looked up)
Growth/differentiation factor …: APLATRQGKRPSKNLKARCSRKALHVNFKDMGWDDWIIAPLEYEAFHCEGLCEFPLRSHLEPTNHAVIQTLMNSMDPESTPPTCCVPTRLSPISILFIDSANNVVYKQYEDMVVESCGCR
Cartilage explants
  expansion of cartilage tissue in explants: little or no effect

B3: sLIFR: soluble LIFR, which binds and sequesters LIF (protein, UniProt P42702 45-833, looked up)
extracellular domain: QKKGAPHDLKCVTNNLQVWNCSWKAPSGTGRGTDYEVCIENRSRSCYQLEKTSIKIPALSHGDYEITINSLHDFGSSTSKFTLNEQNVSLIPDTPEILNLSADFSTSTLYLKWNDRGSVFPHRSNVIWEIKVLRKESMELVKLVTHNTTLNGKDTLHHWSWASDMPLECAIHFVEIRCYIDNLHFSGLEEWSDWSPVKNISWIPDSQTKVFPQDKVILVGSDITFCCVSQEKVLSALIGHTNCPLIHLDGENVAIKIRNISVSASSGTNVVFTTEDNIFGTVIFAGYPPDTPQQLNCETHDLKEIICSWNPGRVTALVGPRATSYTLVESFSGKYVRLKRAEAPTNESYQLLFQMLPNQEIYNFTLNAHNPLGRSQSTILVNITEKVYPHTPTSFKVKDINSTAVKLSWHLPGNFAKINFLCEIEIKKSNSVQEQRNVTIKGVENSSYLVALDKLNPYTLYTFRIRCSTETFWKWSKWSNKKQHLTTEASPSKGPDTWREWSSDGKNLIIYWKPLPINEANGKILSYNVSCSSDEETQSLSEIPDPQHKAEIRLDKNDYIISVVAKNSVGSSPPSKIASMEIPNDDLKIEQVVGMGKGILLTWHYDPNMTCDYVIKWCNSSRSEPCLMDWRKVPSNSTETVIESDEFRPGIRYNFFLYGCRNQGYQLLRSMIGYIEELAPIVAPNFTVEDTSADSILVKWEDIPVEELRGFLRGYLFYFGKGERDTSKMRVLESGRSDIKVKNITDISQKTLRIADLQGKTSYHLVLRAYTDGGVGPEKSMYVVTKENS
modifications: extracellular domain
pSTAT3 and MYC [2]
  levels of MYC: substantially reduced
  levels of pSTAT3: substantially reduced
pSTAT3 and MYC [2]; listed as LIFR
  levels of MYC: reduces
  levels of pSTAT3: reduces
pSTAT3 and MYC [2]; listed as soluble LIF receptor
  levels of MYC: reduces
  levels of pSTAT3: reduces

B4: IL-la: inflammatory cytokine (protein, UniProt P01583 113-271, looked up)
Interleukin-1 alpha: SAPFSFLSNVKYNFMRIIKYEFILNDALNQSIIRANDQYLTAAALHNLDEAVKFDMGAYKSSKDDAKITVILRISKTQLYVTAQDEDQPVLLKEMPEIPKTITGSETNLLFFWETHGTKNYFTSVAHPNLFIATKQDYWVCLAGGPPSITDFQILENQA
pSTAT3 and MYC [1]
  levels of MYC: inhibit accumulation
  levels of pSTAT3: inhibit accumulation

B5: OSM: IL-6 family cytokine oncostatin M (protein, UniProt P13725 26-221, looked up)
Oncostatin-M: AAIGSCSKEYRVLLGQLQKQTDLMQDTSRLLDPYIRIQGLDVPKLREHCRERPGAFPSEETLRGLGRRGFLQTLNATLGCVLHRLADLEQRLPKAQDLERSGLNIEDLEKLQMARPNILGLRNNIYCMAQLLDNSDTAEPTKAGRGASQPPTPTPASDAFQRKLEGCRFLHGYHRFMHSVGRVFSKWGESPNRSRR
[3]
  pro-inflammatory response: strong pro-inflammatory response
pSTAT3 and MYC [1]
  levels of MYC: does not elicit any upregulation
  levels of pSTAT3: does not elicit any upregulation
